Results published in IntAct's records for PubMed 25803835.

B1: Serine/threonine-protein kinase TBK1 (Homo sapiens), Q9UHD2 (parent)
chain: MQSTSNHLWLLSDILGQGATANVFRGRHKKTGDLFAIKVFNNISFLRPVDVQMREFEVLKKLNHKNIVKLFAIEEETTTRHKVLIMEFCPCGSLYTVLEEPSNAYGLPESEFLIVLRDVVGGMNHLRENGIVHRDIKPGNIMRVIGEDGQSVYKLTDFGAARELEDDEQFVSLYGTEEYLHPDMYERAVLRKDHQKKYGATVDLWSIGVTFYHAATGSLPFRPFEGPRRNKEVMYKIITGKPSGAISGVQKAENGPIDWSGDMPVSCSLSRGLQVLLTPVLANILEADQEKCWGFDQFFAETSDILHRMVIHVFSLQQMTAHKIYIHSYNTATIFHELVYKQTKIISSNQELIYEGRRLVLEPGRLAQHFPKTTEENPIFVVSREPLNTIGLIYEKISLPKVHPRYDLDGDASMAKAITGVVCYACRIASTLLLYQELMRKGIRWLIELIKDDYNETVHKKTEVVITLDFCIRNIEKTVKVYEKLMKINLEAAELGEISDIHTKLLRLSSSQGTIETSLQDIDSRLSPGGSLADAWAHQEGTHPKDRNVEKLQVLLNCMTEIYYQFKKDKAERRLAYNEEQIHKFDKQKLYYHATKAMTHFTDECVKKYEAFLNKSEEWIRKMLHLRKQLLSLTNQCFDIEEEVSKYQEYTNELQETLPQKMFTASSGIKHTMTPIYPSSNTLVEMTLGMKKLKEEMEGVVKELAENNHILERFGSLTMDGGLRNVDCL
B2: Serine/threonine-protein kinase TBK1 (Homo sapiens), Q9UHD2 (parent)
chain: B1 chain
partner: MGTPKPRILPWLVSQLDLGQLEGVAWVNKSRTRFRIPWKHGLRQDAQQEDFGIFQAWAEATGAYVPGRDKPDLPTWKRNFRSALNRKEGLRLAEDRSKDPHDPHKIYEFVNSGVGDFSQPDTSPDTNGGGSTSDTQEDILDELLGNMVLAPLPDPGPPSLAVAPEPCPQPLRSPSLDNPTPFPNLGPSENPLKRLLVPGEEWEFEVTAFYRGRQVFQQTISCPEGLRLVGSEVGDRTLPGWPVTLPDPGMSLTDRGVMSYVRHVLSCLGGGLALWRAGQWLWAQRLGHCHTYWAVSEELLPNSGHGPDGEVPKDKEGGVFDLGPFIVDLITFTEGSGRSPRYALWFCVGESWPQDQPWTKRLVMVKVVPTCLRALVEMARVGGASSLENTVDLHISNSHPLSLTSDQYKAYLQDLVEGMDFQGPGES

Variants of: B1
Details: with optn_human OPTN

Row | effect of a mutation on the interaction | Variant
1 | with no effect | K38A
2 | disrupting interaction strength | M559R
3 | increasing interaction strength | R47H
4 | decreasing interaction strength | R357Q
5 | with no effect | R308Q

Variants of: B1
Details: with optn_human OPTN
Remark: another data set of the same source

Row | effect of a mutation on the interaction | Variant
6 | disrupting interaction strength | R357Q
7 | disrupting interaction strength | E696K

Variants of: B2
Details: with irf3_human IRF3, Q14653

Row | effect of a mutation on the interaction | Variant
8 | decreasing interaction strength | R308Q
9 | increasing interaction strength | R47H
10 | decreasing interaction strength | E696K

More lines, now with the values behind:

Row | Variant | effect of a mutation on the interaction
11 | M559R | disrupting interaction strength
12 | R357Q | disrupting interaction strength
